The results in this text go back to US7648964B2, “Use of lacritin in promoting ocular cell survival” (University of Virginia Patent Foundation, priority 2004, dated 2010).

In one experiment the test system is NFAT. Briefly: NFAT changes by Western blotting in HSG cells. The class given is cell-based, human. An excerpt:
There has been more evidence regarding PKC alpha translocation and NFAT activation.

The next experiment concerns HSG cells. Briefly: Calcium mobilization imaging in HSG cells (Fluo-4). The class given is cell-based, human. The procedure: Cells were seeded at 1.4×10^4 HSG cells/mm^2 or 0.7×10^4 HSG cells/mm^2 on Matrigel-coated (100 μg/ml; BD Biosciences; San Diego Calif.) coverslips to respectively achieve 70-80% confluency after overnight or 48 h growth in 6-well plates containing phenol red-free Dulbecco's modified Eagle's medium with 10% fetal calf serum.
Other cells were incubated (0.7×10^4HSG cells/mm^2 overnight plating) with 100 ng/ml pertussis toxin (Calbiochem; San Diego Calif.) in phenol red-free Dulbecco's modified Eagle's medium with 10% fetal calf serum; or vehicle alone). Cells were washed with calcium-free/phenol red-free Hanks basic salt solution, 20 mM N-2-hydroxyethylpiperazine-N′-2-ethane sulfonic acid and then incubated for 1 h at room temperature with the same solution containing fluo-4 μM at 4 μM (FluoroPure grade [Molecular Probes; Eugene Oreg.] dissolved in DMSO plus 20% Pluronic F-127). Cells were washed three times for 60 min at room temperature with calcium-free/phenol red-free Hanks basic salt solution with 5 mM Ca^2+ or 5 mM EGTA. Temperature was stabilized for 5 min at 37° C. coverslips were placed on the stage of a TE-200 epifluorescent microscope (Bio-Rad Radiance2100 confocal/multiphoton system using Plan Fluor 60×NA 1.4 Oil IR objective lens [Bio-Rad, Hercules Calif.] as part of the W. M. Keck Center for Cellular Imaging, University of Virginia), subjected to a 488 nm argon laser light source with emission at 528 nm. Baseline monitoring was followed by addition of lacritin or deletion fragments in phenol red-free Hanks basic salt solution.

For another experiment, the system named is caspase-3. Briefly: Caspase-3 activity in human corneal epithelial cells treated with TNF. Particulars: FIG. 11. Format: cell-based. The procedure: FIG. 11 graphically illustrates the ability of lacritin and fragments of lacritin to inhibit the ability of tumor necrosis factor (TNF) to regulate caspase-3 activity in human corneal epithelial cells. Go6976 is an inhibitor of protein kinase C. The ordinate represents relative fluorescence units. White bars indicate 3 hours and diagonally-hatched bars indicate 6 hours.
Lacritin-induced proliferation and calcium signaling was studied in the human corneal epithelial (HCE) cell line. HCE cells were grown at 37° C. in DMEM F/12 supplemented with 10% FBS and 50 μg/ml gentamicin. Each experiment was done in a dose- and time-dependent manner using TNF-α (5-20 ng/ml) and lacritin (1-10 nM). Cell viability was measured spectrophotometrically at an absorbance of 570 nm using the MTT assay. Caspase-8 activity was detected fluorometrically by measuring cleavage of the fluorogenic substrate IETD-pNA at an excitation wavelength of 405 nm. Lacritin-induced cell proliferation was studied by H3-thymidine incorporation and via fluorescence-based detection of PKC, PLC and cAMP. Calcium signaling was detected by confocal microscopy of Fluo-4 loaded cells.

For experiment [1], the system named is human corneal epithelial (HCE) cells. The experiment can be described thus: 3H-thymidine uptake mitogenesis assay. Format: cell-based. The procedure: (§1) For phosphotyrosine blotting and mitogenesis assays, cells in serum-containing media were seeded overnight in 24-well plates at a density of 0.5×10^5 cells/mm^2 corresponding to 20-30% confluency after cell attachment, incubated in serum-free media without supplements for 24 h (phosphotyrosine) or washed with serum-free media without supplements three times (mitogenesis) and incubated with lacritin (1-1000 nM), or positive controls EGF (1.6 nM) and 10% fetal bovine serum, or negative controls bovine serum albumin or no additive in serum-free media without supplements for the indicated times (phosphotyrosine) or 30 h (mitogenesis). […] After washing, bound antibodies were detected with peroxidase-labeled secondary antibody and ECL. […] Incorporation was stopped with ice-cold phosphate buffered saline and followed by addition of cold and then room temperature trichloracetic acid (10%) for 10 min each, washing of cells with phosphate buffered saline, solubilization with 1 N sodium hydroxide, neutralization with 1 N hydrochloric acid, addition of scintillation fluid and then quantitation in a scintillation counter. […] Seventy-two hours post-transfection, mitogenesis was assessed by co-addition of 10 […] lacritin and [^3H]-thymidine (2 mCi/ml) (Amersham, Piscataway N.J.) for 24 hrs. […]

Experiment [2] deals with p42 and p44 MAPK (MAPK1 and MAPK3). The experiment can be described thus: p42/p44 MAPK activation blot in HSG cells. Format: cell-based, human. The procedure: as §1

Entries after “also recorded” stand apart in the source; their conditions may differ.

Take `Cn1c2ccccc2c2c3c(c4c5ccccc5n(CCC#N)c4c21)CNC3=O` [Go 6976]: the “effect on lacritin-induced changes of NFAT” value in the experiment on NFAT is given as “abolish changes of NFAT”. Moreover, the “effect on Ca++ signaling after lacritin stimulation” value with HSG cells (Example 4) is “suppress Ca++ signaling”. For the same molecule, in the experiment on HSG cells (U73122 1 μM, Go 6976 1 μM, even at 10 μM), the “effect on carbachol-stimulated calcium mobilization” value is “unaffected”. Also, the “effect on lacritin-stimulated calcium mobilization” value with HSG cells (preincubation: pertussis toxin 100 ng/ml, U73122 1 μM, Go 6976 1 μM, or siRNA) is recorded as “completely inhibited”. Moreover, in the experiment with caspase-3, the “protection from cell death by TNF (caspase-3 activity)” value was “do not protect”.

B1: N-24: deletion mutant comprising a deletion of the 24 amino terminal amino acids of lacritin (protein)
chain: DSTGADPAQEAGTSKPNEEISGPAEPASPPETTTTAQETSAAAVQGTAKVTSSRQELNPLKSIVEKSILLTEQALAKAGKGMHGGVPGGKQFIENGSEFAQKLLKKFSLLKPWA
modifications: homo sapiens
notes: deletion mutant comprising a deletion of the 24 amino terminal amino acids of lacritin
For B1, the mitogenesis entry in experiment [1] is on record as “promote cell proliferation”.

B2: lacritin: recombinant human lacritin from E. coli; mature 119 residue fragment (SEQ ID NO:10) of native lacritin SEQ ID NO:4 (protein, listed as Homo sapiens)
chain: EDASSDSTGADPAQEAGTSKPNEEISGPAEPASPPETTTTAQETSAAAVQGTAKVTSSRQELNPLKSIVEKSILLTEQALAKAGKGMHGGVPGGKQFIENGSEFAQKLLKKFSLLKPWA
For B2, the mitogenesis result in experiment [1] is recorded as “mitogenic; also recorded: promote cell proliferation”. In experiment [2], the “activation of p42 and p44 MAPK” value is given as “no activation”. In addition, the calcium mobilization result in the experiment with HSG cells (10 nM) is on record as “promotes calcium mobilization”. Also, the “calcium mobilization in EGTA-containing medium” value with HSG cells (10 nM lacritin) is “mobilized internal calcium”. Moreover, the “time to calcium mobilization after addition” value with HSG cells (lacritin 10 nM) was no more than 30 s.
